In patent US20200024330A1:

Tests used:
Assay in all cases: cell-based or functional assay
[1] = target: HIV-1 Env of isolate MGRM-D-016 (clade D) (HIV-1)
[2] = target: HIV-1 MGRM-A-010 envelope glycoprotein (Env) (HIV-1)
[3] = target: HIV-1 MGRM-C-010 Env (HIV-1)
[4] = target: HIV-1 Env of isolate MGRM-D-008 (clade D) (HIV-1)
[5] = target: HIV-1 Env of pseudovirus APV_13, clade B (HIV-1)
[6] = target: HIV-1 Env of pseudovirus MGRM-Chronic-B-002, clade B (HIV-1)
[7] = target: HIV-1 Env of isolate MGRM-G-015 (clade G pseudovirus) (HIV-1)
[8] = target: HIV-1 Env of isolate MGRM-G-019 (clade G pseudovirus) (HIV-1)
[9] = target: HIV-1 Env of isolate MGRM-G-028 (clade G pseudovirus) (HIV-1)
[10] = target: HIV-1 Env of pseudovirus 93TH305, clade B (HIV-1)
[11] = target: HIV-1 JR-CSF envelope protein (Env) on pseudovirus (HIV-1) (UniProt P20871)
[12] = target: HIV-1 MGRM-F1-015 Env (pseudovirus) (HIV-1)
[13] = target: HIV-1 98IN022 envelope glycoprotein (Env) on pseudovirus (HIV-1)
[14] = target: HIV-1 JR-CSF Env I165A (HIV-1 (isolate JR-CSF)) (UniProt P20871)
[15] = target: HIV-1 Env of isolate 98IN022 (HIV-1)
[16] = target: HIV-1 Env of isolate MGRM-F1-013 (subtype F), on pseudovirus (HIV-1)
[17] = target: HIV-1 Env of isolate MGRM-AG-008 (CRF_AG), on pseudovirus (HIV-1)
[18] = target: HIV-1 Env of isolate MGRM-C-017 (HIV-1)
[19] = target: HIV-1 Env of isolate 92UG114 (HIV-1)
[20] = target: HIV-1 Env of isolate MGRM-C-027 (HIV-1)
[21] = target: HIV-1 JR-CSF Env N188A (HIV-1 (isolate JR-CSF)) (UniProt P20871)
[22] = target: HIV-1 Env of isolate MGRM-F1-016 (subtype F), on pseudovirus (HIV-1)
[23] = target: HIV-1 JR-CSF Env L179A (HIV-1 (isolate JR-CSF)) (UniProt P20871)
[24] = target: HIV-1 Env of isolate 92TH021 (CRF01_AE), on pseudovirus (HIV-1)
[25] = target: HIV-1 Env of isolate MGRM-D-019 (HIV-1)
[26] = target: HIV-1 Env of isolate MGRM-D-012 (HIV-1)
[27] = target: HIV-1 Env of isolate MGRM-C-008 (HIV-1)
[28] = target: HIV-1 JR-CSF Env D474A (HIV-1 (isolate JR-CSF)) (UniProt P20871)
[29] = target: HIV-1 Env of isolate TRO.11 (HIV-1)
[30] = target: HIV-1 Env of isolate MGRM-A-014 (clade A), on pseudovirus (HIV-1)
[31] = target: HIV-1 Env of isolate VLGCA1 (clade A), on pseudovirus (HIV-1)
[32] = target: HIV-1 Env of isolate MGRM-AE-002 (CRF01_AE), on pseudovirus (HIV-1)
[33] = target: HIV-1 JR-CSF Env D477A (HIV-1 (isolate JR-CSF)) (UniProt P20871)
[34] = target: HIV-1 Env of isolate MGRM-AG-003 (CRF_AG), on pseudovirus (HIV-1)
[35] = target: HIV-1 Env of isolate 98CN006 (HIV-1)
[36] = target: HIV-1 Env of isolate MGRM-AG-001 (CRF_AG), on pseudovirus (HIV-1)
[37] = target: HIV-1 Env of isolate MGRM-C-014 (HIV-1)
[38] = target: HIV-1 MGRM-Chronic-B-001 Env (pseudovirus) (HIV-1)
[39] = target: HIV-1 MGRM-C-027 envelope glycoprotein (Env) on pseudovirus (HIV-1)
[40] = target: HIV-1 Env of isolate MGRM-C-013 (pseudovirus) (HIV-1 isolate MGRM-C-013, subtype C)
[41] = target: HIV-1 MGRM-C-026 envelope glycoprotein (Env) on pseudovirus (HIV-1)
[42] = target: HIV-1 Env of isolate 92UG024 (subtype D) (HIV-1)
[43] = target: HIV-1 Env of isolate 98IN022 (pseudovirus) (HIV-1 isolate 98IN022, subtype C)

Sequence of 5345_I01 (PGT-137) (antibody) (VH): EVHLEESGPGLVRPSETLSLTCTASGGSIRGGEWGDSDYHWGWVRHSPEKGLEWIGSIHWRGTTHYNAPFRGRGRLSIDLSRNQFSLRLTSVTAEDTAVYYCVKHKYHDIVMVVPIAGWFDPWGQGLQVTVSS
Sequence of 5345_I01 (PGT-137) (antibody) (VL): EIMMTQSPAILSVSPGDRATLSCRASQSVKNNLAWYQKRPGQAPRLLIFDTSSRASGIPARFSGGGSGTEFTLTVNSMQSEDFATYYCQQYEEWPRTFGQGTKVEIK
Sequence of 5329_C19 (PGT-136) (antibody) (VH): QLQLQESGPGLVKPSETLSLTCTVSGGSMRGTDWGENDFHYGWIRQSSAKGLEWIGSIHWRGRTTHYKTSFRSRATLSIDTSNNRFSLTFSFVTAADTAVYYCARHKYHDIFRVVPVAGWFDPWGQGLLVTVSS
Sequence of 5329_C19 (PGT-136) (antibody) (VL): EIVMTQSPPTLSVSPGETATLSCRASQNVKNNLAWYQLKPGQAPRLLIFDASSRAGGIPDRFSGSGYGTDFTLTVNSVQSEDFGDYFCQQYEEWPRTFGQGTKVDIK

| Substance | Fold IC50 increase relative to wild-type [14] | IC50 [15] | IC50, pseudovirus neutralization [16] | IC50, single-round pseudovirus neutralization [17] | IC50 [18] | IC50 [19] | IC50 [20] | IC50, pseudovirus neutralization [22] | IC50, single-round pseudovirus neutralization [24] | IC50 [25] | IC50 [26] | IC50 [27] | IC50 [29] | IC50, single-round pseudovirus neutralization [30] | IC50, single-round pseudovirus neutralization [31] | IC50, single-round pseudovirus neutralization [32] | IC50, single-round pseudovirus neutralization [34] | IC50 [35] | IC50, single-round pseudovirus neutralization [36] | IC50 [37] | further results |
| --- | --- | --- | --- | --- | --- | --- | --- | --- | --- | --- | --- | --- | --- | --- | --- | --- | --- | --- | --- | --- | --- |
| 2F5 (antibody) | – | – | – | – | – | – | – | – | – | – | – | – | – | – | – | – | – | – | – | – | IC50 (µg/ml), pseudovirus neutralization [1]: 9.85 µg/mL; IC50 (µg/ml), pseudovirus neutralization [2]: 20.8 µg/mL; IC50 [3]: > 50 µg/mL; IC50 (µg/ml), pseudovirus neutralization [4]: > 50 µg/mL; IC50 (µg/ml), pseudovirus neutralization [5]: 3.81 µg/mL; IC50 (µg/ml), pseudovirus neutralization [6]: 1.25 µg/mL; IC50 (µg/ml), pseudovirus neutralization [7]: 0.43 µg/mL; IC50 (µg/ml), pseudovirus neutralization [8]: > 50 µg/mL; IC50 (µg/ml), pseudovirus neutralization [9]: 2.24 µg/mL; IC50 (µg/ml), pseudovirus neutralization [10]: 7.61 µg/mL; neutralization IC50 [11]: 3.36 µg/mL; IC50 (µg/ml), pseudovirus neutralization [12]: 0.1 µg/mL; IC50 (µg/ml), pseudovirus neutralization [13]: > 50 µg/mL |
| 2G12 (antibody) | – | – | – | – | – | – | – | – | – | – | – | – | – | – | – | – | – | – | – | – | IC50 (µg/ml), pseudovirus neutralization [1]: > 50 µg/mL; IC50 (µg/ml), pseudovirus neutralization [2]: 17 µg/mL; IC50 [3]: > 50 µg/mL; IC50 (µg/ml), pseudovirus neutralization [4]: > 50 µg/mL; IC50 (µg/ml), pseudovirus neutralization [5]: 9.24 µg/mL; IC50 (µg/ml), pseudovirus neutralization [6]: > 50 µg/mL; IC50 (µg/ml), pseudovirus neutralization [7]: > 50 µg/mL; IC50 (µg/ml), pseudovirus neutralization [8]: 31 µg/mL; IC50 (µg/ml), pseudovirus neutralization [9]: 28.2 µg/mL; IC50 (µg/ml), pseudovirus neutralization [10]: 0.55 µg/mL; neutralization IC50 [11]: 0.66 µg/mL; IC50 (µg/ml), pseudovirus neutralization [12]: > 50 µg/mL; IC50 (µg/ml), pseudovirus neutralization [13]: > 50 µg/mL |
| 5114_A19 (PGT-128) (antibody) | 2.1 fold | 0.014 µg/mL | 12.7 µg/mL | 0.668 µg/mL | 1.06 µg/mL | 0.083 µg/mL | 0.081 µg/mL | 1.21 µg/mL | 0.01 µg/mL | > 50 µg/mL | > 50 µg/mL | 0.373 µg/mL | 0.018 µg/mL | 0.007 µg/mL | 0.838 µg/mL | 0.522 µg/mL | 34.8 µg/mL | 0.015 µg/mL | 4.73 µg/mL | > 50 µg/mL | Fold IC50 increase relative to wild-type [21]: 1.3 fold; Fold IC50 increase relative to wild-type [23]: 2.8 fold; Fold IC50 increase relative to wild-type [28]: 0.8 fold; Fold IC50 increase relative to wild-type [33]: 0.7 fold |
| 5136_H01 (PGT-131) (antibody) | 2.4 fold | > 50 µg/mL | > 50 µg/mL | > 50 µg/mL | > 50 µg/mL | > 50 µg/mL | 0.065 µg/mL | > 50 µg/mL | 0.014 µg/mL | > 50 µg/mL | > 50 µg/mL | > 50 µg/mL | 1.91 µg/mL | 15.4 µg/mL | > 50 µg/mL | > 50 µg/mL | 2.92 µg/mL | 35.3 µg/mL | > 50 µg/mL | > 50 µg/mL | Fold IC50 increase relative to wild-type [21]: 0.9 fold; Fold IC50 increase relative to wild-type [23]: 4.8 fold; Fold IC50 increase relative to wild-type [28]: 1.6 fold; Fold IC50 increase relative to wild-type [33]: 1 fold |
| 5141_B17 (PGT-126) (antibody) | 2.5 fold | – | – | – | – | – | – | – | – | – | – | – | – | – | – | – | – | – | – | – | IC50, pseudovirus neutralization [38]: > 50 µg/mL; IC50 (ug/ml), neutralizing activity [39]: 1.14 µg/mL; Fold IC50 increase relative to wild-type [21]: 0.8 fold; IC50 (µg/mL) neutralization [40]: > 50 µg/mL; Fold IC50 increase relative to wild-type [23]: 2.6 fold; Fold IC50 increase relative to wild-type [28]: 3.3 fold; IC50 (ug/ml), neutralizing activity [41]: 0.0076 µg/mL; IC50 (µg/mL), pseudovirus neutralization [42]: > 50 µg/mL; Fold IC50 increase relative to wild-type [33]: 1.1 fold; IC50 (µg/mL) neutralization [43]: 0.279 µg/mL |
| 5147_N06 (PGT-130) (antibody) | 3.2 fold | > 50 µg/mL | > 50 µg/mL | > 50 µg/mL | > 50 µg/mL | > 50 µg/mL | 0.008 µg/mL | > 50 µg/mL | 0.009 µg/mL | > 50 µg/mL | > 50 µg/mL | 7.28 µg/mL | 0.257 µg/mL | 0.161 µg/mL | > 50 µg/mL | 1.53 µg/mL | 0.041 µg/mL | 0.258 µg/mL | > 50 µg/mL | > 50 µg/mL | IC50 (ug/ml), neutralizing activity [39]: 0.0052 µg/mL; Fold IC50 increase relative to wild-type [21]: 1 fold; Fold IC50 increase relative to wild-type [23]: 2.4 fold; Fold IC50 increase relative to wild-type [28]: 2 fold; IC50 (ug/ml), neutralizing activity [41]: 0.0173 µg/mL; Fold IC50 increase relative to wild-type [33]: 1.1 fold |
| 5329_C19 (PGT-136) (antibody) | – | 13.6 µg/mL | > 50 µg/mL | > 50 µg/mL | > 50 µg/mL | > 50 µg/mL | > 50 µg/mL | > 50 µg/mL | > 50 µg/mL | > 50 µg/mL | > 50 µg/mL | > 50 µg/mL | 0.073 µg/mL | > 50 µg/mL | > 50 µg/mL | > 50 µg/mL | > 50 µg/mL | 0.406 µg/mL | > 50 µg/mL | > 50 µg/mL | – |
| 5343_B08 (PGT-135) (antibody) | 4 fold | 0.014 µg/mL | 21.1 µg/mL | > 50 µg/mL | > 50 µg/mL | 1.29 µg/mL | > 50 µg/mL | > 50 µg/mL | > 50 µg/mL | > 50 µg/mL | > 50 µg/mL | > 50 µg/mL | 0.03 µg/mL | 0.636 µg/mL | > 50 µg/mL | > 50 µg/mL | > 50 µg/mL | 0.429 µg/mL | > 50 µg/mL | > 50 µg/mL | Fold IC50 increase relative to wild-type [21]: 0.4 fold; Fold IC50 increase relative to wild-type [23]: 1.2 fold; Fold IC50 increase relative to wild-type [28]: 1.2 fold; Fold IC50 increase relative to wild-type [33]: 1.5 fold |
| 5345_I01 (PGT-137) (antibody) | – | 0.408 µg/mL | > 50 µg/mL | > 50 µg/mL | > 50 µg/mL | > 50 µg/mL | > 50 µg/mL | > 50 µg/mL | > 50 µg/mL | > 50 µg/mL | > 50 µg/mL | > 50 µg/mL | 9.35 µg/mL | 18.6 µg/mL | > 50 µg/mL | > 50 µg/mL | > 50 µg/mL | 1.22 µg/mL | > 50 µg/mL | > 50 µg/mL | – |
